For experiment [1], the target named is T1, TROP-2-his (UniProt P09758 27-274).
T1 construct: also called antigen TROP-2-his; not shown: his tag
T1 sequence (looked up): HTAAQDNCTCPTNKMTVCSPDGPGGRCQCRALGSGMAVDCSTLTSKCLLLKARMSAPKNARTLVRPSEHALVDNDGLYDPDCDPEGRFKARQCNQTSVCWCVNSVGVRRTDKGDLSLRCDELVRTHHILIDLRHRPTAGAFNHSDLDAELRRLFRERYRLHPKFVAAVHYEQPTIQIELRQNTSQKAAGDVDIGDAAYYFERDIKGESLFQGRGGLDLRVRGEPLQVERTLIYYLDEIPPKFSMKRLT
The experiment can be described thus: SPR (Biacore), antibody captured on Protein A chip, TROP-2-his flowed over, 1:1 Langmuir fit. An excerpt:
(§1) In this test example, the affinity of the TROP-2 antibody and the TROP-2-ADC compound obtained according to the above examples to TROP-2 is detected by means of capturing antibody.
(§2) Use the Sensor Chip Protein A biosensor chip (Cytiva) to capture the antibody (TROP-2 antibody or TROP-2-ADC compound), then flow through the antigen TROP-2-his on the surface of the chip, and use the Biacore K8 instrument (Cytiva) Real-time detection of reaction signals to obtain association and dissociation curves. After the dissociation of each experiment cycle, the chip was washed and regenerated with regeneration buffer. After the experiment, GE Biacore K8 Evaluation version 3.0 software was used to fit the data with the (1:1) Langmuir model to obtain the affinity value.

For experiment [2], the target named is T1, TROP-2-his. The experiment in a line: SPR (Biacore), ADC captured on Protein A chip, TROP-2-his flowed over, 1:1 Langmuir fit.
Description: as §1, §2
Background: SPR reads the build-up and loss of mass on a sensor chip optically.

The target in experiment [3] is T2, human HER3-His antigen (human, UniProt P21860 20-643).
T2 construct: not shown: His tag
The experiment can be described thus: SPR (Biacore 8K), antibody captured on Protein A chip, HER3-His at 0.625-40 nM as analyte. On the procedure:
(§3) The binding ability of naked antibody, HER3-ADC-19, HER3-ADC-20, HER3-ADC-21 to human HER3-His antigen was determined at 7 different concentrations (0.625-40 nM) using protein A biosensor chip.

Experiment [4] concerns the target T2, human HER3-His antigen. The experiment in a line: SPR (Biacore 8K), ADC captured on Protein A chip, HER3-His at 0.625-40 nM as analyte. On the procedure: as §3

B1: anti-human TROP-2 monoclonal antibody (anti-hRS7 antibody) (antibody, human IgG1, kappa, V domains shown)
VH: QVQLQQSGSELKKPGASVKVSCKASGYTFTNYGMNWVKQAPGQGLKWMGWINTYTGEPTYTDDFKGRFAFSLDTSVSTAYLQISSLKADDTAVYFCARGGFGSSYWYFDVWGQGSLVTVSS
VL: DIQLTQSPSSLSASVGDRVSITCKASQDVSIAVAWYQQKPGKAPKLLIYSASYRYTGVPDRFSGSGSGTDFTLTISSLQPEDFAVYYCQQHYITPLTFGAGTKVEIKR
notes: also called Naked antibody (anti-TROP-2 monoclonal antibody); TROP-2 antibody
In the case of B1, the dissociation constant Kd with TROP-2-his [1] came to 0.318 nM.

B2: TROP-2-ADC-21 (antibody, human IgG1, kappa, V domains shown)
VH: B1 VH
VL: B1 VL
modifications: drug-linker compound 68 coupled to cysteines of the reduced interchain disulfide bonds; positions not given; drug-linker compound 68 (maleimide linker, exatecan derivative) coupled to cysteines of the reduced interchain disulfide bonds; positions not given; DAR 4.78 for the whole antibody
As for B2, the Kd with TROP-2-his [2] is 0.275 nM.

B3: TROP-2-ADC-23 (antibody, human IgG1, kappa, V domains shown)
VH: B1 VH
VL: B1 VL
modifications: drug-linker compound 70 coupled to cysteines of the reduced interchain disulfide bonds; positions not given; drug-linker compound 70 (maleimide linker, exatecan derivative) coupled to cysteines of the reduced interchain disulfide bonds; positions not given; DAR 6.42 for the whole antibody
In turn, B3 registered a Kd in the experiment with TROP-2-his [2] of 0.262 nM.

B4: TROP-2-ADC-19 (antibody, human IgG1, kappa, V domains shown)
VH: B1 VH
VL: B1 VL
modifications: drug-linker compound 66 coupled to cysteines of the reduced interchain disulfide bonds; positions not given; drug-linker compound 66 (maleimide linker, exatecan derivative) coupled to cysteines of the reduced interchain disulfide bonds; positions not given; DAR 4.65 for the whole antibody
B4 showed a Kd in the experiment with TROP-2-his [2] of 0.319 nM.

B5: TROP-2-ADC-3 (antibody, human IgG1, kappa, V domains shown)
VH: B1 VH
VL: B1 VL
modifications: drug-linker compound 50 coupled to cysteines of the reduced interchain disulfide bonds; positions not given; drug-linker compound 50 (maleimide linker, exatecan derivative) coupled to cysteines of the reduced interchain disulfide bonds; positions not given; DAR 14.74 for the whole antibody
In the experiment with TROP-2-his [2], B5 came in with a Kd of 0.276 nM.

B6: TROP-2-ADC-4 (antibody, human IgG1, kappa, V domains shown)
VH: B1 VH
VL: B1 VL
modifications: drug-linker compound 51 coupled to cysteines of the reduced interchain disulfide bonds; positions not given; drug-linker compound 51 (maleimide linker, exatecan derivative) coupled to cysteines of the reduced interchain disulfide bonds; positions not given; DAR 8.49 for the whole antibody
With B6, binding with TROP-2-his [2] was put at a Kd of 0.293 nM.

B7: anti-human HER3 monoclonal antibody (antibody, human IgG1, kappa, V domains shown)
VH: QVQLQQWGAGLLKPSETLSLTCAVYGGSFSGYYWSWIRQPPGKGLEWIGEINHSGSTNYNPSLKSRVTISVETSKNQFSLKLSSVTAADTAVYYCARDKWTWYFDLWGRGTLVTVSS
VL: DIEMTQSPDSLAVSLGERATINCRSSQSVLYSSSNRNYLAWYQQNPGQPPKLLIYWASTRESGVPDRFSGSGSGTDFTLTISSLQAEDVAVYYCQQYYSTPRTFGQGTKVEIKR
notes: also called Naked antibody; HER3 antibody
In the experiment with human HER3-His antigen [3], B7 registered a dissociation constant Kd of 1.41 nM, a dissociation rate constant (koff) of 0.000363 s⁻¹ and an association rate constant (kon) of 257000 M⁻¹ s⁻¹.

B8: HER3-ADC-21 (antibody, human IgG1, kappa, V domains shown)
VH: B7 VH
VL: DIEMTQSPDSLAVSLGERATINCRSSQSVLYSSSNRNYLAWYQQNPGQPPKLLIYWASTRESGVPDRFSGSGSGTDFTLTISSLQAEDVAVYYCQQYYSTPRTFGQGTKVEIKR
modifications: drug-linker compound 68 coupled to cysteines of the reduced interchain disulfide bonds; positions not given; drug-linker compound 68 (maleimide linker, exatecan derivative) coupled to cysteines of the reduced interchain disulfide bonds; positions not given; DAR 8.00 for the whole antibody
In the experiment with human HER3-His antigen [4], B8 displayed a Kd of 2.08 nM, a koff of 0.000451 s⁻¹ and a kon of 217000 M⁻¹ s⁻¹.

By Kd is commonly meant the concentration at which binding is half-saturated. As a reminder, the koff is the first-order rate constant of dissociation. A low value points to slow dissociation. A word on the kon: it is the second-order rate constant of association.

Values taken from US20250161473A1 (GAN AND LEE PHARMACEUTICALS, published 2025).
